Source: patent publication US20250215104A1 (WALDEN BIOSCIENCES, published 2025)
Numbering of substitutions follows the chain as printed.

B1: suPAR_DB02_D01 (scFv, V domains shown)
VH: QVQLVQSGAEVKKPGASVKVSCKASGYTFTDYYMHWVRQAPGQGLEWMGWIDHENGNTIYDQKFQGRVTMTRDTSTSTVYMELSSLRSEDTAVYYCARGYDVDWFVYWGQGTLVTVSS
VL: DIQMTQSPSSLSASVGDRVTITCSARSSVSYMYWYQQKPGKAPKLLIYRTSNLASGVPSRFSGSGSGTDFTLTISSLQPEDFATYYCQQYHSYPPTFGGGTKVEIK
notes: scFv clone from phage display
B2: suPAR_DB02_E06 (scFv, V domains shown)
VH: B1 VH with D31G, H53P
VL: B1 VL
notes: scFv clone from phage display
B3: suPAR_DB02_D11 (scFv, V domains shown)
VH: B1 VH with Y27F, T28N, F29I, T30K, M34I, H53P
VL: B1 VL
notes: scFv clone from phage display
B4: suPAR_DB02_C07 (scFv, V domains shown)
VH: B1 VH with Y32S, M34I, H53A, E54N, N57D, I59N, D61A, Q62E, K63R
VL: B1 VL
notes: scFv clone from phage display
B5: suPAR_DB02_F08 (scFv, V domains shown)
VH: B1 VH with D31G, M34I, H53P, D61A
VL: B1 VL with R26S, V29I
notes: scFv clone from phage display
B6: suPAR_DB02_D10 (scFv, V domains shown)
VH: B1 VH with D31G, H53P, N55G
VL: B1 VL
notes: scFv clone from phage display
B7: suPAR_DB02_D06 (scFv, V domains shown)
VH: B1 VH with Y27D, T30A, D31N, D52I, H53P, E54N, N55S, N57D, I59N, D61A
VL: B1 VL with N52S, A54Q
notes: scFv clone from phage display
B8: suPAR_DB02_E11 (scFv, V domains shown)
VH: B1 VH with Y27G, T30S, D31N
VL: B1 VL with S24R, S27Q, N52S
notes: scFv clone from phage display
B9: suPAR_DB02_F06 (scFv, V domains shown)
VH: QVQLVQSGAEVKKPGASVKVSCKASGFNFTDYYIHWVRQAPGQGLEWMGWIDPNSGSTNYAQNFQGRVTMTRDTSTSTVYMELSSLRSEDTAVYYCARGYMVDWFVYWGQGTLVTVSS
VL: B1 VL
notes: scFv clone from phage display
B10: suPAR_DB02_D03 (scFv, V domains shown)
VH: B1 VH with D31S, Y32H
VL: B1 VL
notes: scFv clone from phage display
B11: suPAR_DB02_G05 (scFv, V domains shown)
VH: B1 VH with D31G, Y32H, H53P, N55G, D61A
VL: B1 VL with R26S
notes: scFv clone from phage display
B12: suPAR_DB02_F07 (scFv, V domains shown)
VH: B1 VH with D31G, M34V, H53P, N55G
VL: B1 VL with S24R, S27Q, A54Q
notes: scFv clone from phage display
B13: suPAR_DB02_D05 (scFv, V domains shown)
VH: B1 VH with D31S
VL: B1 VL
notes: scFv clone from phage display
B14: suPAR_DB02_G11 (scFv, V domains shown)
VH: B1 VH with Y27D, D31G, N55G, D61A
VL: B1 VL
notes: scFv clone from phage display
B15: suPAR_DB02_C11 (scFv, V domains shown)
VH: B1 VH with T28N, T30K, M34I, N57S, D61A
VL: B1 VL with S27Q
notes: scFv clone from phage display
B16: suPAR_DB02_G09 (scFv, V domains shown)
VH: B9 VH with N28T, F29I, T30K, I34M, N54S, S55N, S57A, Y60S, M101D
VL: B1 VL with S24R, R26S
notes: scFv clone from phage display
B17: suPAR_DB02_D08 (scFv, V domains shown)
VH: B1 VH with D31N
VL: B1 VL with S24R, S27Q
notes: scFv clone from phage display
B18: suPAR_DB02_F09 (scFv, V domains shown)
VH: B1 VH with D31G, H53P, N55G, N57S, R98G
VL: B1 VL
notes: scFv clone from phage display
B19: suPAR_DB02_C06 (scFv, V domains shown)
VH: B1 VH with Y27F, T28N, F29I
VL: B1 VL with R26S, S27Q
notes: scFv clone from phage display
B20: suPAR_DB02_C10 (scFv, V domains shown)
VH: B1 VH with M34V, N55G, N57S
VL: B1 VL
notes: scFv clone from phage display
B21: suPAR_DB02_G10 (scFv, V domains shown)
VH: B1 VH with D31N, H53P, N57S
VL: B1 VL with S24R, S27Q, A54E, S55T
notes: scFv clone from phage display
B22: suPAR_DB02_D02 (scFv, V domains shown)
VH: B1 VH with Y27D, D31S, N55G, I59S, D61A
VL: B1 VL
notes: scFv clone from phage display
B23: suPAR_DB02_E05 (scFv, V domains shown)
VH: B9 VH with F29I, T30K, I51V, N54S, S57A, N59D, N63K, M101D
VL: B1 VL
notes: scFv clone from phage display
B24: suPAR_DB02_H02 (scFv, V domains shown)
VH: B1 VH with D31G, M34L, H53P, N57S
VL: B1 VL
notes: scFv clone from phage display
B25: suPAR_DB02_E02 (scFv, V domains shown)
VH: B1 VH
VL: B1 VL with N52S, A54Q
notes: scFv clone from phage display
B26: suPAR_DB02_F04 (scFv, V domains shown)
VH: B1 VH with F29L, D31S, M34V, H53P, E54K, N55S, N57D, I59K, D61A, Q62H
VL: B1 VL
notes: scFv clone from phage display
B27: suPAR_DB02_C09 (scFv, V domains shown)
VH: B1 VH with D31G, M48V, W50L, D52N, H53P, E54S, N55D, N57Y, I59T, D61A
VL: B1 VL
notes: scFv clone from phage display
B28: suPAR_DB02_D04 (scFv, V domains shown)
VH: B9 VH with N28T, F29I, T30K, I34M, N54D, S57G, Q62E, N63K, M101D
VL: B1 VL with S24R, S27Q
notes: scFv clone from phage display
B29: suPAR_DB02_E09 (scFv, V domains shown)
VH: B9 VH with F29I, T30K, S57G, N63K, M101D
VL: B1 VL
notes: scFv clone from phage display
B30: suPAR_DB02_F12 (scFv, V domains shown)
VH: B1 VH with Y27D, T28M, D31G, M34L
VL: B1 VL with N52S
notes: scFv clone from phage display
B31: suPAR_DB02_F11 (scFv, V domains shown)
VH: B1 VH with D31S, Y32S
VL: B1 VL with S24R, V29I
notes: scFv clone from phage display
B32: suPAR_DB02_D12 (scFv, V domains shown)
VH: B1 VH with T30S, D31N, N55G, N57S, D61A
VL: B1 VL with Y90S
notes: scFv clone from phage display
B33: suPAR_DB02_E07 (scFv, V domains shown)
VH: B9 VH with F27Y, T30N, D31A, I34M, N54H, S57G, N63K, M101D
VL: B1 VL
notes: scFv clone from phage display
B34: suPAR_DB02_C12 (scFv, V domains shown)
VH: B1 VH with F29L, H53P, N55G, I59S
VL: B1 VL
notes: scFv clone from phage display
B35: suPAR_DB02_E08 (scFv, V domains shown)
VH: B1 VH with T28N, F29I, T30K, D31S, M34I, R98A
VL: B1 VL
notes: scFv clone from phage display
B36: suPAR_DB02_E04 (scFv, V domains shown)
VH: B1 VH with D31N, M34I, H35Q
VL: B1 VL
notes: scFv clone from phage display

Biological target: T1, human soluble urokinase plasminogen activator receptor (suPAR) (human, UniProt Q03405 23-303, limits assumed)
T1 construct: Column head says only 'human'; also called human suPAR; hsuPAR
T1 sequence (Q03405 23-303 limits assumed): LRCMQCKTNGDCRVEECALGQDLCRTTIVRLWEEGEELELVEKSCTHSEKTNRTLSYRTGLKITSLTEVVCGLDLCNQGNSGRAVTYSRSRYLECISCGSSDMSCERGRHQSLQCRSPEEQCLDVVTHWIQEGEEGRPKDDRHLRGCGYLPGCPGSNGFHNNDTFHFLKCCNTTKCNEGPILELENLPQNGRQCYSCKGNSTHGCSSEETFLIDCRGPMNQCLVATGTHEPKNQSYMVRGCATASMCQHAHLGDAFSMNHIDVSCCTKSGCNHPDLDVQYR
Assay: BLI (Octet) off-rate screen of scFv clones

| Binder | koff |
| --- | --- |
| B1 | 0.003 s⁻¹ |
| B2 | 0.00239 s⁻¹ |
| B3 | 0.00415 s⁻¹ |
| B4 | 0.0026 s⁻¹ |
| B5 | 0.0021 s⁻¹ |
| B6 | 0.00178 s⁻¹ |
| B7 | 0.00416 s⁻¹ |
| B8 | 0.00423 s⁻¹ |
| B9 | 0.00495 s⁻¹ |
| B10 | 0.0055 s⁻¹ |
| B11 | 0.00242 s⁻¹ |
| B12 | 0.002 s⁻¹ |
| B13 | 0.00358 s⁻¹ |
| B14 | 0.00561 s⁻¹ |
| B15 | 0.0049 s⁻¹ |
| B16 | 0.00733 s⁻¹ |
| B17 | 0.00202 s⁻¹ |
| B18 | 0.00166 s⁻¹ |

| Binder | koff |
| --- | --- |
| B19 | 0.00475 s⁻¹ |
| B20 | 0.00257 s⁻¹ |
| B21 | 0.00562 s⁻¹ |
| B22 | 0.00436 s⁻¹ |
| B23 | 0.00239 s⁻¹ |
| B24 | 0.00579 s⁻¹ |
| B25 | 0.00438 s⁻¹ |
| B26 | 0.00384 s⁻¹ |
| B27 | 0.00387 s⁻¹ |
| B28 | 0.0041 s⁻¹ |
| B29 | 0.00473 s⁻¹ |
| B30 | 0.00494 s⁻¹ |
| B31 | 0.00198 s⁻¹ |
| B32 | 0.00611 s⁻¹ |
| B33 | 0.00392 s⁻¹ |
| B34 | 0.00319 s⁻¹ |
| B35 | 0.0031 s⁻¹ |
| B36 | 0.00311 s⁻¹ |

Biological target: T2, cynomolgus soluble urokinase plasminogen activator receptor (suPAR) (cynomolgus, UniProt Q9GK78 23-303, limits assumed)
T2 construct: Column head says only 'cynomologus'; also called cynomolgus suPAR; cynomolgus uPAR
T2 sequence (Q9GK78 23-303 limits assumed): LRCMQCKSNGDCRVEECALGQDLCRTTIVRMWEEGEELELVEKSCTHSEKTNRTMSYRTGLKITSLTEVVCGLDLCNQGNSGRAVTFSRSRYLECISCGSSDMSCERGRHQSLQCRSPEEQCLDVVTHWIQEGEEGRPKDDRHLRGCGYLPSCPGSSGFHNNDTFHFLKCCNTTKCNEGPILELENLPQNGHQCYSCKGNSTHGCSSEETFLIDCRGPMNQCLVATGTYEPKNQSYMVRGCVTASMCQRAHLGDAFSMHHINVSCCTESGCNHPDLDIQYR
Assay: BLI (Octet) off-rate screen of scFv clones

| Binder | koff |
| --- | --- |
| B1 | 4.7e-07 s⁻¹ |
| B2 | 0.000295 s⁻¹ |
| B3 | 0.000265 s⁻¹ |
| B5 | 2.47e-05 s⁻¹ |
| B6 | 0.000381 s⁻¹ |
| B7 | 0.00051 s⁻¹ |
| B8 | 0.000376 s⁻¹ |
| B9 | 0.000174 s⁻¹ |
| B10 | 0.000188 s⁻¹ |
| B11 | 0.000521 s⁻¹ |
| B12 | 0.000384 s⁻¹ |
| B13 | 0.000305 s⁻¹ |
| B14 | 0.00013 s⁻¹ |
| B15 | 0.0004 s⁻¹ |
| B16 | 0.00025 s⁻¹ |
| B17 | 0.000345 s⁻¹ |
| B18 | 0.000624 s⁻¹ |
| B19 | 0.000141 s⁻¹ |

| Binder | koff |
| --- | --- |
| B20 | 0.000198 s⁻¹ |
| B21 | 0.00043 s⁻¹ |
| B22 | 2.49e-05 s⁻¹ |
| B23 | 0.00146 s⁻¹ |
| B24 | 0.000498 s⁻¹ |
| B25 | 0.000189 s⁻¹ |
| B26 | 0.000453 s⁻¹ |
| B27 | 0.000335 s⁻¹ |
| B28 | 0.000281 s⁻¹ |
| B29 | 0.00021 s⁻¹ |
| B30 | 9.82e-05 s⁻¹ |
| B31 | 0.000613 s⁻¹ |
| B32 | 0.0038 s⁻¹ |
| B33 | 0.000177 s⁻¹ |
| B34 | 0.000582 s⁻¹ |
| B35 | 0.000363 s⁻¹ |
| B36 | 0.000217 s⁻¹ |
